In publication PMC10529061 one finds Kd data, which are given here for one substance.

The assay deals with His6-tagged CHIP (C-terminus of Hsc70-interacting protein) (UniProt Q9UNE7). Nature of the assay: BLI.

The term Kd denotes the constant that tells how readily two partners part at equilibrium. A lower Kd goes with higher affinity.

Sequence of UniProt Q9UNE7 (Q9UNE7 whole entry): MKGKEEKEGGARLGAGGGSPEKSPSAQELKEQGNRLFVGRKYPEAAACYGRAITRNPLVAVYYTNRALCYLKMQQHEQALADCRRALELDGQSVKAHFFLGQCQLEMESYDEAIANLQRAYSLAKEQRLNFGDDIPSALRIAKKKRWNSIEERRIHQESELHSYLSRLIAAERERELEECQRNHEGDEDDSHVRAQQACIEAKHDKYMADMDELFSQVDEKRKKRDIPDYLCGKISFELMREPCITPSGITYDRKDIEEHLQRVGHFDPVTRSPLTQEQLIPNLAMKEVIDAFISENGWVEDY

With “E2 (UbcH5b), wild type (from UniProt P62837 1-147) (enzyme; other documents disagree on this pair)”, the equilibrium dissociation constant (Kd) turned out to be 6.28 µM.
